The text below walks through data of patent US20030092631A1 (Genentech, published 2003).

Bridge positions count the residues as written; N and C are the ends. Ends that are not written are not given here.

B1: CECGKVSSRGCEKLCWLVSYM (peptide)
chain: CECGKVSSRGCEKLCWLVSYMGGGSGGGAEGDDPAKAAFNSLQASATEYIGYAWAMVVVIVGATIGIKLFKKFTSKAS
notes: naive clone; polyvalent P8 display on phage; STII signal left out
B2: DAMDCVVGPEWRKCFLEG (peptide)
chain: DAMDCVVGPEWRKCFLEGGGGSGGGAEGDDPAKAAFNSLQASATEYIGYAWAMVVVIVGATIGIKLFKKFTSKAS
notes: as for B1

BSA, sequence (P02769 25-607 limits assumed): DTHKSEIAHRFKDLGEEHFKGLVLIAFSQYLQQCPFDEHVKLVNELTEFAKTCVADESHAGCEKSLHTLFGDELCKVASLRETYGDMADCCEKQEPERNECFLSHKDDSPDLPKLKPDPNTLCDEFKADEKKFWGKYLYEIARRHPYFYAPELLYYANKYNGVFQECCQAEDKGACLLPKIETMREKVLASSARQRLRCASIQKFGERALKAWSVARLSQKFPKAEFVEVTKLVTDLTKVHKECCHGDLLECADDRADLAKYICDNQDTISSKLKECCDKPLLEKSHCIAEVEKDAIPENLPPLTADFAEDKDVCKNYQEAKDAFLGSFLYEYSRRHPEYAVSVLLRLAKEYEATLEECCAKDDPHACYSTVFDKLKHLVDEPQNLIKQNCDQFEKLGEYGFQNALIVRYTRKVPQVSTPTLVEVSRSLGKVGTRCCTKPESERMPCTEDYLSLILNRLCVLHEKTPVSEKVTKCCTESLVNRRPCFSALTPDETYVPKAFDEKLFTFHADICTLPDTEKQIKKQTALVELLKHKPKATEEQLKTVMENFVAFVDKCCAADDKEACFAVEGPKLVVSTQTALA

For the first assay, the target named is BSA (UniProt P02769 25-607). In words: phage ELISA, BSA on plate. The procedure:
(§1) From each round, individual peptide-displaying phage were isolated and analyzed for binding to IGF-1 in a phage ELISA by capturing the peptide-phage with IGF-1 immobilized on a plate, and detecting bound phage (see below). As a control for non-specific binding, the phage were also analyzed in a phage ELISA that used plates coated with BSA. […]
(§2) MAXISORP™ immunoplates (96-well) were coated with capture target protein for 2 hours at room temperature (100 μL at 5 μg/mL in 50 mM carbonate buffer, pH 9.6). The plates were then blocked for 1 h with 0.2% BSA in phosphate-buffered saline (PBS) and washed eight times with PBS, 0.05% TWEEN®-20 detergent. Phage particles were serially diluted into BSA blocking buffer and 100 μL were transferred to coated wells. After I h, plates were washed eight times with PBS, 0.05% TWEEN®-20 detergent, incubated with 100 μL of 1:3000 horse radish peroxidase/anti-M 13 antibody conjugate in BSA blocking buffer for 30 min. and then washed eight times with PBS, 0.05% TWEEN®-20 detergent and two times with PBS. Plates were developed using a tetramethylbenzidine substrate (TMB, Kirkegaard and Perry, Gaithersburg, Md.), stopped with 1.0 M H3PO₄, and read spectrophotometrically at 450 nm.
As to B1, the binding result is “no binding”.
As to B2, the binding result is on record as “no binding”.

The target in another assay is T1, IGF-1 (human, UniProt P05019 49-118).
T1 construct: mature; also called insulin-like growth factor-1; rhIGF-1
T1 sequence (P05019 49-118): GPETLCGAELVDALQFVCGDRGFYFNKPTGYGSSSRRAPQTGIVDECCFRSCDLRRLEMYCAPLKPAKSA
In words: phage ELISA, IGF-1 on plate. The procedure: as §1, §2
Turning to B1, the binding result was “binds”.
Consider B2, for which the binding result is given as “binds”.

The target of the next assay is T1, IGF-1. In words: displacement of 125I-IGF-1 (2 nM) from receptors on MCF-7 cells. The procedure:
Cell were passaged weekly in media containing a 50/50 mix of high-glucose DMEM/ Ham's F12, with 10% fet al bovine serum and 10 mM HEPES pH 7.2. Cells were plated and grown overnight maintained at 37° C. and 5% CO₂. For IGF-1 iodination, 50 μg of IGF-1 was diluted into 200 μL of PBS and added to a tube coated with 100 μg of IODOGEN® 1,3,4,6-tetrachloro-3a-6β-diphenylglycouril) (Pierce Chemical Co.), incubated with 1 mCi of ¹²²⁵-Nal (10 μL) at room temperature for 10-15 minutes. Synthesized peptides and binding protein controls were preincubated with 2 nm ¹²⁵I IGF-1 for 40 minutes at 37° C. The samples were added to cells for 30 minutes. The cells were washed with media and lysed with 1N NaOH.
Molecule FECLTSVEALRGCMYG (synthetic peptide) [F1-3] gave an IC50 of 45.7 µM.
On to RNCFESVAALRRCMYG (disulfide 3-13, synthetic peptide; also called IGF-F1-1) [F1-1], for which the IC50 worked out at 5.12 µM.
Same read-out and setting: next, MDCLASVEALKWCMYG (synthetic peptide) [F1-2]: 15.3 µM.

The next assay has as its target T1, IGF-1. In words: cell-based or functional assay.
In the case of DECLMSVEALKNCMGG [F1-P], the “IGF-1 KIRA” value was 400 µM and the “Insulin KIRA” value was determined as 183 µM.
In the case of ARCVVDAGGTWYCWAG [F2-P], the “Insulin KIRA” value worked out at 300 µM.
As for FECLTSVEALRGCMYG (synthetic peptide) [F1-3], the “IGF-1 KIRA” value was 102 µM and the “Insulin KIRA” value amounted to 66.1 µM.
On the same counts, the results for RNCFESVAALRRCMYG (disulfide 3-13, synthetic peptide; also called IGF-F1-1) [F1-1] are 84.9 µM and 5.48 µM.
As to MDCLASVEALKWCMYG (synthetic peptide) [F1-2], the “IGF-1 KIRA” value is 20 µM and the “Insulin KIRA” value was 32.6 µM.
Take WRCVDDLGGFQYCWAG [F2-2]: the “IGF-1 KIRA” value stood at 130 µM and the “Insulin KIRA” value worked out at 93.6 µM.
For LGCASDLAGFWYCWAG [F2-1], the “Insulin KIRA” value came out at 40.4 µM.

A further assay has as its target T1, IGF-1. In words: monovalent phage ELISA; soluble IGF-1 titrated against peptide-phage binding to immobilised IGF-1.
“… (from UniProt P01241 27-217) (peptide)” registered an IC50 of 209 µM.

The target in another assay is T2, phage displaying human IGF-1 (phage vector pIGF-g3) (human, UniProt P05019 49-118).
T2 construct: Construct as in Dubaquie and Lowman; also called IGF-1 displaying phage; Phage IGF-1; not shown: g3 of the phage vector pIGF-g3 (M13 gene III protein)
T2 sequence (P05019 49-118 limits assumed): as the sequence (P05019 49-118) above
In words: competition phage ELISA: peptide against IGF-1 phage binding to IGFBP-1 on plate. The procedure:
(§3) The IGF-1 displaying phage was titered against IGF bp1 and bp3 for a 500-1000× dilution for preincubation with serial dilutions the synthesized peptides and binding protein standards for 45 minutes. Immunosorbant plates were coated with IGF binding proteins and blocked with 0.5% TWEEN®-20 detergent and PBS and washed as above. The samples were added to the plates for 20 minutes, washed and detected as above. The experimental IC50 values are in Table 5.
Regarding FECLTSVEALRGCMYG (synthetic peptide) [F1-3], the IC50 stood at 11.7 µM.
The molecule RNCFESVAALRRCMYG (disulfide 3-13, synthetic peptide; also called IGF-F1-1) [F1-1] returned an IC50 of 1.4 µM.
MDCLASVEALKWCMYG (synthetic peptide) [F1-2] registered an IC50 of 15.5 µM.

The target of another assay is T2, phage displaying human IGF-1 (phage …). In words: competition phage ELISA: peptide against IGF-1 phage binding to IGFBP-3 on plate. The procedure: as §3
As for FECLTSVEALRGCMYG (synthetic peptide) [F1-3], the IC50 was determined as 12.8 µM.
Same read-out and setting: with RNCFESVAALRRCMYG (disulfide 3-13, synthetic peptide; also called IGF-F1-1) [F1-1] the figure was 2.93 µM; with MDCLASVEALKWCMYG (synthetic peptide) [F1-2], 9.2 µM.
